From article PMC4474691, “Leukemia-Associated Mutations in Nucleophosmin Alter Recognition by CRM1: Molecular Basis of Aberrant Transport” (PLoS ONE, 2015)
Changes are numbered by the printed parent chain.

B1: NPMmutE: AML-associated NPM mutant E; in b62 the value is for its NES as TFP construct (protein)
chain: MEDSMDMDMSPLRPQNYLFGCELKADKDYHFKVDNDENEHQLSLRTVSLGAGAKDELHIVEAEAMNYEGSPIKVTLATLKMSVQPTVSLGGFEITPPVVLRLKCGSGPVHISGQHLVAVEEDAESEDEEEEDVKLLSISGKRSAPGGGSKVPQKKVKLAADEDDDDDDEEDDDEDDDDDDFDDEEAEEKAPVKKSIRDTPAKNAQKSNQNGKDSKPSSTPRSKGQESFKKQEKTPKTPKGPSSVEDIKAKMQASIEKGGSLPKVEAKFINYVKNCFRMTDQEAIQDLWQSLAQVSLRK
modifications: full-length mutant E, pentamer (SEC); for the b62 value only the NES DLWQSLAQVSLRK as TFP fusion was assayed
B2: NPMmutA: AML-associated NPM mutant A; in b62 the value is for its NES as TFP construct (protein)
chain: B1 chain with W288C, Q289L, S290A, L291V, A292E, Q293E
modifications: full-length mutant A, pentamer (SEC); for the b62 value only the NES DLCLAVEEVSLRK as TFP fusion was assayed

Target: T1, CRM1^HA (Mus musculus, UniProt Q6P5F9, L431A/V430A/V432A)
T1 construct: His-ZZ (cleaved yes); made in house; host or cells: Escherichia coli BL21-CodonPlus (DE3)
T1 sequence (Q6P5F9 1-1062 V430A/L431A/V432A limits assumed): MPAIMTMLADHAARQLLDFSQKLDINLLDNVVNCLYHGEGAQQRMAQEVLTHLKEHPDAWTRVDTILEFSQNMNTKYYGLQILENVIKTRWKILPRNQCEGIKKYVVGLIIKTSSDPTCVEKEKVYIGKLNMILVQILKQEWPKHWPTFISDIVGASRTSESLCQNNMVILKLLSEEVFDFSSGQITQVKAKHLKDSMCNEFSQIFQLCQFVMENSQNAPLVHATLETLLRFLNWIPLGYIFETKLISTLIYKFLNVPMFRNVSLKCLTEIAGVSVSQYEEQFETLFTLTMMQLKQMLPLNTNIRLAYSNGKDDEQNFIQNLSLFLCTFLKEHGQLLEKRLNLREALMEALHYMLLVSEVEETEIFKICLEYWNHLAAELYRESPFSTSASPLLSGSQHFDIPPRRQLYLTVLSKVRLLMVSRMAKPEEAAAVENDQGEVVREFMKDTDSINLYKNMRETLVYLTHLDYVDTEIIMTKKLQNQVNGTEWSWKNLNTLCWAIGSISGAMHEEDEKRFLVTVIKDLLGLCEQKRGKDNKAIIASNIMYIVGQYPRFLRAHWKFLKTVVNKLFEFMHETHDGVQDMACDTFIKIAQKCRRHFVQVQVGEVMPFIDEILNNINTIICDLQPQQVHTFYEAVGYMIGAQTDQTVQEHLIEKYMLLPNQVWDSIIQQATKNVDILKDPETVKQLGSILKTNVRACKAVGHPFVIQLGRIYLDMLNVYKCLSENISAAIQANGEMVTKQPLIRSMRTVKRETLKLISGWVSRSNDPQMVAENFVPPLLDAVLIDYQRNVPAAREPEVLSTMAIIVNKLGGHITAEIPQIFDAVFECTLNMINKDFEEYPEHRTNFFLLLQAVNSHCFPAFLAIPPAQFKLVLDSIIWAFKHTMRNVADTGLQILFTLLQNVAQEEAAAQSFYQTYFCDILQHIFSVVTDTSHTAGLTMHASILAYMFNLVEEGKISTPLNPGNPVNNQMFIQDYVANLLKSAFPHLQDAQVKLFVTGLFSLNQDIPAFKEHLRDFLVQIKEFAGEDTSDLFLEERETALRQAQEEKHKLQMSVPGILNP
Experiment: Isothermal titration calorimetry, CRM1^HA / NES
Type: binding
Details: ITC, TFP-NES titrated onto CRM1^HA, 20°C, 20 mM HEPES pH 7.4; rounded; read-out: KD
Protocol: Isothermal titration calorimetry (ITC)
ITC measurements were carried out using a VIP-ITC MicroCalorimeter (MicroCal, Inc., Northampton, MA). TFP and YFP constructs, as well as CRM1^HA, were dialyzed in a buffer containing 20 mM HEPES, pH 7.4, 50 mM NaCl, 1 mM TCEP, 1 mM MgCl2, and degassed prior to the experiment. Untagged peptides (AS: QDLCLAVEEVSLRK, AL: EAIQDLCLAVEEVSLRK, ES: QDLWQSLAQVSLRK and EL: EAIQDLWQSLAQVSLRK), N-acetylated and 95% pure, were purchased from Proteogenix (Schiltigheim, France) and resuspended in the ITC buffer. Measurements were performed at 20°C. TFP-NES, YFP-NES or NES peptides at 35–180 μM were titrated onto CRM1^HA at 2–14 μM. Injections of 6 μL were performed at 320 seconds interval (the first injection always was of 1 μL and is not considered in data analysis). […]
The reaction heat of each injection is related to the calorimetric enthalpy of binding, ΔH^0. The binding isotherms, ΔH^0 vs. molar ratio, were analyzed with an independent binding sites model using MicroCal Origin software. […] The Gibbs free energy of binding ΔG^0 and the entropy ΔS^0 are determined from the basic thermodynamic expressions: ΔG^0 = -RTlnKA = ΔH^0−TΔS^0, where R and T are the gas constant and the absolute temperature, respectively. […]

Molecule	Kd
B1	1000 nM
B2	2400 nM
